T1: human iRhom1, endogenously expressed (human, UniProt Q96CC6 1-855)
T1 construct: also called iRhom1 on RH-30 cells
T1 sequence: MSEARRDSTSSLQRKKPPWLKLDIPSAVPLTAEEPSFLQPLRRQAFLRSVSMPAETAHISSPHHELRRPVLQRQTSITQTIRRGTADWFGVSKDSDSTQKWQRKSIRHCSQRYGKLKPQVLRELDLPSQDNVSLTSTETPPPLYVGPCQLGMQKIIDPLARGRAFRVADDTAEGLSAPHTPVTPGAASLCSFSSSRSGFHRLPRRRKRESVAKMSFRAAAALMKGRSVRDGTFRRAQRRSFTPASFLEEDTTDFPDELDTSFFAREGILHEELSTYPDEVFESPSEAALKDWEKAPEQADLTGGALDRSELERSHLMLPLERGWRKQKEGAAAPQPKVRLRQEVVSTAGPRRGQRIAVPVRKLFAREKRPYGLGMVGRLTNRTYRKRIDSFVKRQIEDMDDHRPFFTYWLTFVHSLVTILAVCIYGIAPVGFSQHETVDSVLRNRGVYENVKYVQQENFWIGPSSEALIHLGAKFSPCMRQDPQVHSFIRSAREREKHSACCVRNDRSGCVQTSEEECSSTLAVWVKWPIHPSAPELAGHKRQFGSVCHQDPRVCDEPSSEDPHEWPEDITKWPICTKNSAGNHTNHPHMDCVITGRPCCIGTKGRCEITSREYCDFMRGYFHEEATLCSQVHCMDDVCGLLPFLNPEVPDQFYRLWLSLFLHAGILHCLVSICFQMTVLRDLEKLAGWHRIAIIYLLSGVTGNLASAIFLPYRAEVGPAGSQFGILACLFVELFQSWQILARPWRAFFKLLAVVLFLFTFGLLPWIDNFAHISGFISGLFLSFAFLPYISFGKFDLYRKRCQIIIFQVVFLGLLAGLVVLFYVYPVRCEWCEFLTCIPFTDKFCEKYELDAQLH

T2: hiR2-FL-H505R-T7 (human, UniProt Q6PJF5 1-856)
T2 sequence: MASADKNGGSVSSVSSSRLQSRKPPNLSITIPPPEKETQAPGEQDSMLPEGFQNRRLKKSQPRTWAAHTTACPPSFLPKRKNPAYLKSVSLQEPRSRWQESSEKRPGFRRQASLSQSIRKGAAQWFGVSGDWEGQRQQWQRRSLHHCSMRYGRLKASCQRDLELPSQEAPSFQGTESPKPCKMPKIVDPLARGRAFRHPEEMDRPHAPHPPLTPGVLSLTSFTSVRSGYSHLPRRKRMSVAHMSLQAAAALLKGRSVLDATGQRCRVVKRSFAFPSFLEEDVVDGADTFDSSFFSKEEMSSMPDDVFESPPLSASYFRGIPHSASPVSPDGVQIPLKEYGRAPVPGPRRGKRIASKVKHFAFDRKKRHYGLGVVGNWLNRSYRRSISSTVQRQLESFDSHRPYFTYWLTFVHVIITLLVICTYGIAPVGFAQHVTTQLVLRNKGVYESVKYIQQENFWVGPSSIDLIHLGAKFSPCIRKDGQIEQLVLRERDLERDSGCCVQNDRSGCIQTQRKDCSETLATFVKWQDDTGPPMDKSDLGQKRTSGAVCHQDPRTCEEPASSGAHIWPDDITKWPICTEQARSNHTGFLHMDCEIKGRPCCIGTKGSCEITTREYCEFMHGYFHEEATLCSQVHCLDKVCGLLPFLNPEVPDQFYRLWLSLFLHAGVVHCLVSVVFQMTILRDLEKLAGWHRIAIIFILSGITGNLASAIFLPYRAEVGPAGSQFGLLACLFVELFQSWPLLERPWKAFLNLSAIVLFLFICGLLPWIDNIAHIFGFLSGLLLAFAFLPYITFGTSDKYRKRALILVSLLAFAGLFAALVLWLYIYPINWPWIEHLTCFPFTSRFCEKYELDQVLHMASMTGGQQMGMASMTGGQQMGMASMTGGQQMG

B1: antibody 22 (antibody, V domains shown)
VH: QVTLKESGPGILQPSQTLSLTCSFSGFSLSTFGMGVGWIRQPSGKGLEWLAHIWWDDEKYYNSALKSRLTISKATSKNQVFLKIANVDTADTATYYCARISNYGSNYWYFNVWGTGTTVTVSS
VL: QVVLTQSPALMSASPGEKVTMTCSAGSSVSYMYWYQQKPGSSPRVLIYDTSNLASGVPARFTGSGSGTSYSLTISRMEAEDAATYYCQQWNSYPLTFGAGTKLELK
notes: mouse IgG, kappa light chain; also called clone #22; purified antibody 22
B2: antibody 42 (antibody, V domains shown)
VH: QVTLKESGPGILQPSQTLSLTCSLSGFSLSTFGRGVGWIRQPSGKGLEWLAHIWWDDEKYYNPALKSRLTISKDTSKNQVFLRIANVDTADTATYYCARIQNYGSNYWYFDVWGTGTTVTVSS
VL: LIVLTQSPAIMSASPGEKVTMTCGATSRISYMFWYQQKPGSSPRVLIYDTSNLASGVPVRFSGSGSGTSYSLTISRVEAEDVATYYCQQWNSYPLTFGAGTKLELK
notes: mouse IgG, kappa light chain; also called clone #42; purified antibody 42
B3: antibody 50 (antibody, V domains shown)
VH: QVQLQQSGAELVRPGASVKVSCKASGYAFSNYLIEWVKQRPGQGLEWIGVINPGSGFTKYNEKFKGKATLTADKSSSTAYMQLSSLTSEDSAVYFCARGLYRAMDYWGQGTSVTVSS
VL: DIQMTQSPASQSASLGESVTITCLASQTIGTWLAWYQQKPGKSPQLLIYAAASLADGVPSRFSGGGSGTKFSFKISSLQAEDFVNYYCQQIYSTPYTFGGGTKLEIK
notes: mouse IgG, kappa light chain; also called clone #50; purified antibody 50

Tests used:
[1] = biological target: T1, human iRhom1, endogenously expressed; assay: FACS, RH-30 cells; via representative antibody 16
Method: In this study, binding specificity analyses of the hybridoma supernatant leading to the antibody 16 of the invention as a representative example of antibodies 3, 16, 22 and 42 of the invention as well as of the antibody 16 of the invention as a representative example of antibodies 16, 22 and 42 of the invention in cell lines endogenously expressing iRhom2 were performed. The studies were conducted on RPMI-8226 cells, a human B lymphocytic cell line endogenously expressing iRhom2 but being endogenously negative for iRhom1, on THP-1 cells, a human monocytic cell line endogenously expressing both iRhom2 and iRhom1 and on RH-30 cells, a human […] cell line endogenously negative for iRhom2 but endogenously expressing iRhom1.
In brief, human RPMI-8226 cells (Deutsche Sammlung von Mikroorganismen und Zellkulturen, Germany), THP-1 cells (American Type Culture Collection, USA) and RH-30 cells (Deutsche Sammlung von Mikroorganismen und Zellkulturen, Germany) were harvested with 10 mM EDTA in PBS, washed and resuspended in FACS buffer (PBS, 3% FBS, 0.05% sodium azide), and seeded in Nunc U-bottom 96-well plates (Thermo Fisher Scientific, USA) at approximately 2×10⁵ cells per well. […] Finally, cells were resuspended in 150 μl per well of FACS buffer and analyzed using a BD Accuri™ C6 Plus flow cytometer (Becton Dickinson, Germany).

[2] = biological target: T2, hiR2-FL-H505R-T7; assay: FACS on MEF-DKO cells

| Binder | binding result [1] | binding result [2] |
| --- | --- | --- |
| B1 | no binding (tested: 3 µg/ml) |  |
| B2 | no binding (tested: 3 µg/ml) |  |
| B3 |  | no binding (tested: 3 µg/ml) |

Source: patent US20240287172A1 (SCIRHOM, published 2024)
